Paper PMC8643638 (Nucleic Acids Research, 2021)
Changes are numbered by the printed parent chain. Names may count otherwise. Blank lines part the entries; values can stand above or below the molecule they belong to.

Key:
[1] = target: T1, Sis0811 (SisRN0811), full length (Saccharolobus islandicus, UniProt F0NH89); test: isothermal titration calorimetry, single-site model; assay type: binding
T1 sequence (F0NH89 1-322): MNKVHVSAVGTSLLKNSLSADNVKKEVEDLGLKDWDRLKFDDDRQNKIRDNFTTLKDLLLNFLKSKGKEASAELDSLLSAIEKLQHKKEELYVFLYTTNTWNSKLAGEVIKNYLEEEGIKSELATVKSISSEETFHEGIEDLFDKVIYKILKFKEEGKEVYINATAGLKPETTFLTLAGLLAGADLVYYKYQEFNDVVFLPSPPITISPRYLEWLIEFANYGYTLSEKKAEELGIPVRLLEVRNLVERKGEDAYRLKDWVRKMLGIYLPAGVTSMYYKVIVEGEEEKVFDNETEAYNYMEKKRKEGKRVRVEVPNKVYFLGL

Sis0811Δ268 = target: T2, Sis0811Δ268 (Saccharolobus islandicus, UniProt F0NH89); test: as above; assay type: binding
T2 sequence (F0NH89 1-268): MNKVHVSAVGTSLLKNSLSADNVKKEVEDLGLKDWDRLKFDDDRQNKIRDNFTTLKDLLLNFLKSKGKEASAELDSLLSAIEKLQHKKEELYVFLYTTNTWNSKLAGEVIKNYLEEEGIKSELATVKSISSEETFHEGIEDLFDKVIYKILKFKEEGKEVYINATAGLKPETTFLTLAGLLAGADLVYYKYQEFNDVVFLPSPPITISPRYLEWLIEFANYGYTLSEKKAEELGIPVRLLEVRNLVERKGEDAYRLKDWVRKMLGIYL

SEC-MALS = target: the molecule itself; test: SEC-MALS
crystal structure = target: the molecule itself; test: crystal structure

Kd [1]: 9.1 nM
Kd (Sis0811Δ268): 5.9 nM
Molecule: Nc1ncnc2c1ncn2[C@@H]1O[C@@H]2COP(=O)(O)O[C@H]3[C@@H](O)[C@H](n4cnc5c(N)ncnc54)O[C@@H]3COP(=O)(O)O[C@H]3[C@@H](O)[C@H](n4cnc5c(N)ncnc54)O[C@@H]3COP(=O)(O)O[C@H]3[C@@H](O)[C@H](n4cnc5c(N)ncnc54)O[C@@H]3COP(=O)(O)O[C@H]2[C@H]1O [cA4]

B1: Sis0811 full length (standalone ring nuclease from Sulfolobus islandicus REY15A) (enzyme, UniProt F0NH89 1-322, looked up)
chain: T1 sequence (F0NH89 1-322)
stoichiometry N (SEC-MALS): 2

B2: Sis0811_(Δ268) (truncated Sis0811 lacking the C-terminal 54 residues) (domain or fragment, Sulfolobus islandicus REY15A, UniProt F0NH89 1-268, looked up)
chain: T2 sequence (F0NH89 1-268)
stoichiometry N (SEC-MALS): 2

B3: Sis0811_(Δ268)(S12A) (domain or fragment, Sulfolobus islandicus REY15A, UniProt F0NH89 1-268, looked up)
chain: T2 sequence (F0NH89 1-268) with S12A
binding result (crystal structure): binds

B4: Sis0811_(Δ268)(S12G/K169G) (domain or fragment, Sulfolobus islandicus REY15A, UniProt F0NH89 1-268, looked up)
chain: T2 sequence (F0NH89 1-268) with S12G, K169G
binding result (crystal structure): binds
